Measured values from PMC3562449 (Nature Communications, 2013).
“And” between values parts separate entries of the source, which are not always exact repeats. Equal entries are not always repeated. Blank lines part the entries; values can stand above or below the molecule they belong to.

Key:
[1] = molecular target: BASS-NoC double mutant with Cys at residues 671 and 788 (Drosophila) (UniProt P46863); assay: SEC + other: sucrose density gradient centrifugation
[2] = molecular target: BASS-NoC double mutant with Cys at residues 671 and 791 (Drosophila) (UniProt P46863); assay: as above
[3] = molecular target: BASS-NoC single mutant with Cys at residue 671 (Drosophila) (UniProt P46863); assay: as above
[4] = molecular target: BASS-NoC single mutant with Cys at residue 788 (Drosophila) (UniProt P46863); assay: as above
[5] = molecular target: BASS-NoC single mutant with Cys at residue 791 (Drosophila) (UniProt P46863); assay: as above
[6] = molecular target: the molecule itself; assay: SEC
[7] = molecular target: the molecule itself; assay: native MS

- stoichiometry N [1]: 4
Molecule: BASS-NoC double mutant with Cys at residues 671 and 788 (from UniProt P46863 631-920) (domain or fragment)

- stoichiometry N [2]: 4
Molecule: BASS-NoC double mutant with Cys at residues 671 and 791 (from UniProt P46863 631-920) (domain or fragment)

- stoichiometry N [3]: 4
Molecule: BASS-NoC single mutant with Cys at residue 671 (from UniProt P46863 631-920) (domain or fragment)

- stoichiometry N [4]: 4
Molecule: BASS-NoC single mutant with Cys at residue 788 (from UniProt P46863 631-920) (domain or fragment)

- stoichiometry N [5]: 4
Molecule: BASS-NoC single mutant with Cys at residue 791 (from UniProt P46863 631-920) (domain or fragment)

The remaining lines, values behind:

B1: BASS-core (BASS 631–835) (domain or fragment, Drosophila, UniProt P46863 631-835, looked up)
chain: EQMQQQQLLMSKEIQTNLQVIEENNQRHKAMLDSMQEKFATIIDSSLQSVEEHAKQMHKKLEQLGAMSLPDAEELQNLQEELANERALAQQEDALLESMMMQMEQIKNLRSKNSISMSVHLNKMEESRLTRNHRIDDIKSGIQDYQKLGIEASQSAQAELTSQMEAGMLCLDQGVANCSMLQVHMKNLNQKYEKETNENVGSVRV
- stoichiometry N [6]: 4

B2: BASS (bipolar assembly) domain of kinesin-5, residues 631–920 (domain or fragment, Drosophila, UniProt P46863 631-920, looked up)
chain: EQMQQQQLLMSKEIQTNLQVIEENNQRHKAMLDSMQEKFATIIDSSLQSVEEHAKQMHKKLEQLGAMSLPDAEELQNLQEELANERALAQQEDALLESMMMQMEQIKNLRSKNSISMSVHLNKMEESRLTRNHRIDDIKSGIQDYQKLGIEASQSAQAELTSQMEAGMLCLDQGVANCSMLQVHMKNLNQKYEKETNENVGSVRVHHNQVEIICQESKQQLEAVQEKTEVNLEQMVDARQQLITEDRQRFIGHATVATDLVQESNRQFSEHAEHQRQQLQICEQELVRFQ
- stoichiometry N [7]: 2 and 4

B3: BASS 631–790 (domain or fragment, Drosophila, UniProt P46863 631-790, looked up)
chain: EQMQQQQLLMSKEIQTNLQVIEENNQRHKAMLDSMQEKFATIIDSSLQSVEEHAKQMHKKLEQLGAMSLPDAEELQNLQEELANERALAQQEDALLESMMMQMEQIKNLRSKNSISMSVHLNKMEESRLTRNHRIDDIKSGIQDYQKLGIEASQSAQAEL
- stoichiometry N [6]: 4 and 2
